{"source": "paper PMC7581431", "key": {"[1]": {"target": "Lip-NKD-HisC (human (identical sequence in mouse and human)) (UniProt Q969G9)", "sequence (Q969G9 whole entry)": "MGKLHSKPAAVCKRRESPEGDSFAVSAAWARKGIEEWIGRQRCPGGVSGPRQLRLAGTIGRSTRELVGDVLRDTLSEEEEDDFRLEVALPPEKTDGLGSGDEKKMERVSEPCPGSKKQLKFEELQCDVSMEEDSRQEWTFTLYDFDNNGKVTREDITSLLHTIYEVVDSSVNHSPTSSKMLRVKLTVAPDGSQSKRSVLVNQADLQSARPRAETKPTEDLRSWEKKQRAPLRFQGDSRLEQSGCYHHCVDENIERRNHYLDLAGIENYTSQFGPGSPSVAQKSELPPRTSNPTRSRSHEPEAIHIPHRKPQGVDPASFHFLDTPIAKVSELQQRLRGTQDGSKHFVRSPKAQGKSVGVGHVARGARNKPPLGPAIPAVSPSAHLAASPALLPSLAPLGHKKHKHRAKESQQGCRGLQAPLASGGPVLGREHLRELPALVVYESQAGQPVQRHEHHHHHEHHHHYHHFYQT", "test": "aggregation and co-aggregation assay read by PAGE; purified proteins in 15 mM acetate, 150 mM NaCl, pH 5.0 mixed in different ratios; after 10 min 1 M Tris-HCl pH 8.0 added to 200 mM; after 20 min boiled 10 min in LDS sample buffer; PAGE under denaturing and reducing conditions"}, "[2]": {"target": "CK1ε", "test": "BioID proximity labeling (mass spectrometry)", "conditions": "+Wnt3a"}, "[3]": {"target": "CELSR1 [human (endogenous in Flp-In-T-REx-293)]", "test": "BioID proximity labeling (mass spectrometry)", "conditions": "+Wnt3a"}, "[4]": {"target": "Notch2 [human (endogenous in Flp-In-T-REx-293)]", "test": "BioID proximity labeling (mass spectrometry)", "conditions": "+Wnt3a"}}, "data": [{"substance": "Lip-NKD-HisC (from UniProt Q969G9 1-470) (domain or fragment)", "values": [{"measurement": "stoichiometry N", "setting": "[1]", "value": 10}]}, {"substance": "MBP-Axin1-HisC (from UniProt O15169 1-862) (domain or fragment)", "values": [{"measurement": "molecules per core (molecules per core)", "setting": "[1]", "value": "< 5"}]}, {"substance": "Nkd1-BirA* (from UniProt Q99MH6) G2A", "values": [{"measurement": "response (unweighted spectral counts)", "setting": "[2]", "value": 8}]}, {"substance": "Nkd1-BirA* mutant G2A [murine] / CELSR1 [human (endogenous in Flp-In-T-REx-293)] chain 1 G2A", "values": [{"measurement": "response (unweighted spectral counts)", "setting": "[3]", "value": 1}]}, {"substance": "Nkd1-BirA* mutant G2A [murine] / Notch2 [human (endogenous in Flp-In-T-REx-293)] chain 1 G2A", "values": [{"measurement": "response (unweighted spectral counts)", "setting": "[4]", "value": 1}]}]}
